According to the supplement of paper PMC7877785:
± gives the uncertainty stated by the source.

Experiment: self-splicing fitness, log relative to wild type (ln ratio); higher = more splicing; Tetrahymena group I intron in knt gene, E. coli kanamycin selection, DiMSum; sequences stand for … in CUCUCU…GGAGGGAAAAGUUAUCAGGCAUGCACCUGGUAGCUAGUCUUUAAACCAAUAGAUUGCAUCGGUUUAAAAGGCAAGACCGUCAAAUUGCGGGAAAGGGGUCAACAGCCGUUCAGUACCAAGUCUCAGGGGAAACUUUGAGAUGGCCUUGCAAAGGGUAUGGUAAUAAGCUGACGGACAUGGUCCUAACCACGCAGCCAAGUCCUAAGUCAACAGAUCUUCUGUUGAUAUGGAUGCAGUUCACAGACUAAAUGUCGGUCGGGGAAGAUGUAUUCUUCUCAUAAGAUAUAGUCGGACCUCUCCUUAAUGGGAGCUAGCGGAUGAAGUGAUGCAACACUGGAGCCGCUGGGAACUAAUUUGUAUGCGAAAGUAUAUUGAUUAGUUUUGGAGUACUCGUGGUCG
Outline: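 A randomised library covering all eight P1ex-region intron nucleotides was built with the intron in the knt kanamycin-resistance gene on pET-22b(+) and held in E. coli BL21(DE3). Cells were grown overnight at 37°C or 30°C on LB agar, with or without 25 μg/mL kanamycin, plus 100 μg/mL carbenicillin, 50 μM IPTG and 0.2% rhamnose, and pooled colonies were amplicon-sequenced on an Illumina HiSeq 2500. DiMSum fitness is the error-weighted combination of wild-type-normalised replicate fold changes, kanamycin versus none.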

Sequence	self-splicing fitness (ln) (30 °C)	self-splicing fitness (ln) (37 °C)
CUUAAGCAAUAUUACGGCCA	-2.95 ± 0.44	–
UCAAAGCAAUAUUACGACAC	-3.05 ± 0.48	-1.97 ± 0.43
AGACAGCAAUAUUACGUACC	-0.256 ± 0.11	-0.253 ± 0.14
GGGGAGCAAUAUUACGUUGA	-3.11 ± 0.26	-2.27 ± 0.24
GAGCAGCAAUAUUACGGUUA	-0.804 ± 0.1	-0.875 ± 0.1
ACUAAGCAAUAUUACGGGGG	-3.59 ± 0.29	-1.26 ± 0.17
CACCAGCAAUAUUACGCCUA	-2.37 ± 0.16	-1.52 ± 0.17
AAGGAGCAAUAUUACGUAUU	-2.95 ± 0.12	-2.34 ± 0.15
GAUCAGCAAUAUUACGGAUG	-1.19 ± 0.068	-0.813 ± 0.076
CCUCAGCAAUAUUACGUUAG	-3.27 ± 0.15	-2.14 ± 0.14
GGAUAGCAAUAUUACGACAG	-4.21 ± 0.37	-2.36 ± 0.29
CCGAAGCAAUAUUACGUCAC	-3.29 ± 0.35	–
AUUGAGCAAUAUUACGAUGU	-2.26 ± 0.11	-1.41 ± 0.16
ACUAAGCAAUAUUACGGACU	0.14 ± 0.054	0.436 ± 0.076
UGUAAGCAAUAUUACGAGCC	-1.57 ± 0.35	-0.838 ± 0.43
ACCGAGCAAUAUUACGAACA	-3.15 ± 0.47	-1.43 ± 0.17
UACCAGCAAUAUUACGGUGA	-0.536 ± 0.057	0.0523 ± 0.075
CCACAGCAAUAUUACGUUGG	-3.83 ± 0.11	-2.51 ± 0.13
CAAGAGCAAUAUUACGAAGU	-3.86 ± 0.34	-2.3 ± 0.33
AGAGAGCAAUAUUACGGCAU	-2.39 ± 0.18	-1.36 ± 0.18

Sequence	self-splicing fitness (ln) (30 °C)	self-splicing fitness (ln) (37 °C)
CACAAGCAAUAUUACGGGAA	-3.21 ± 0.16	-2.79 ± 0.17
AAUGAGCAAUAUUACGUGCU	-3.93 ± 0.36	-2.44 ± 0.25
ACGCAGCAAUAUUACGGCAC	-0.763 ± 0.077	-0.602 ± 0.11
GCGCAGCAAUAUUACGUCGA	-0.665 ± 0.09	0.801 ± 0.13
GCUAAGCAAUAUUACGAGAU	-2.3 ± 0.12	-1.51 ± 0.14
UCCUAGCAAUAUUACGACUC	-2.94 ± 0.41	-2.24 ± 0.36
GAGUAGCAAUAUUACGACGA	-0.0886 ± 0.15	-0.664 ± 0.12
UCGAAGCAAUAUUACGCCGA	-0.786 ± 0.25	-1.16 ± 0.28
UCAUAGCAAUAUUACGUAGU	-3.07 ± 0.21	-2.17 ± 0.28
UGUAAGCAAUAUUACGUACC	-1.07 ± 0.34	-0.216 ± 0.26
UGCCAGCAAUAUUACGAAAA	-2 ± 0.17	-1.24 ± 0.14
CAACAGCAAUAUUACGAAUG	-1.04 ± 0.058	-0.229 ± 0.074
CCCGAGCAAUAUUACGAGCG	-3.77 ± 0.29	-2.88 ± 0.27
GAGCAGCAAUAUUACGGCGC	-0.751 ± 0.12	0.209 ± 0.17
GUCUAGCAAUAUUACGUCAA	-1.4 ± 0.067	-0.997 ± 0.085
CUUCAGCAAUAUUACGUCGU	-4.07 ± 0.14	-2.88 ± 0.12
AGUUAGCAAUAUUACGAUUA	–	-0.435 ± 0.33
UCUAAGCAAUAUUACGCGUG	-1.43 ± 0.087	-1.15 ± 0.11
CGGAAGCAAUAUUACGAGUA	–	-2.86 ± 0.29
